Patent US20200040101A1

Assays:
[1] = biological target: CLDN18.1 expressed on HEK 293 cells (UniProt P56856); assay: FACS, secondary antibody alone on HEK 293 cells expressing CLDN 18.1
[2] = biological target: human Claudin 18.2 (CLDN18.2) expressed on cells (human) (UniProt P56856); assay: FACS, secondary antibody alone on HEK 293 cells expressing CLDN 18.2

Sec. antibody
MFI [1]: 18
MFI [2]: 53
